Results taken from publication PMC4196948.
Values joined by “and” are separate entries in the source; they are usually repeats but may differ in a detail not shown here. Equal values may be shown once.

Legend:
[1] = molecular target: tcSOD truncation mutant M202 (residues 1-201) (not stated (metagenomic library of hot springs in Tengchong, China)); experiment: cross-linking; glutaraldehyde, 20 mM sodium phosphate pH 7.4, after heating at 25°C or 80°C for 50 min, cross-linked 1 or 5 min; read by 12.5% SDS-PAGE
[2] = molecular target: wild type tcSOD (hyperthermostable Fe-superoxide dismutase from Tengchong hot springs) (not stated (metagenomic library of hot springs in Tengchong, China)); experiment: native gel or EMSA; 10% native-PAGE (also 5-15% gradient native-PAGE), 20 mM PBS pH 7.4, 0.1-1.0 mg/ml (mutants 1 mg/ml); the predominant oligomer (quaternary structure)
[3] = molecular target: wild type tcSOD (hyperthermostable Fe-superoxide dismutase from Tengchong hot springs) (not stated (metagenomic library of hot springs in Tengchong, China)); experiment: cross-linking; glutaraldehyde, 20 mM sodium phosphate pH 7.4, after heating at 25°C or 80°C for 50 min, cross-linked 1 or 5 min; read by 12.5% SDS-PAGE
[4] = molecular target: wild type tcSOD (hyperthermostable Fe-superoxide dismutase from Tengchong hot springs) (not stated (metagenomic library of hot springs in Tengchong, China)); experiment: native gel or EMSA; tetramers and high-order oligomers separated by ion exchange (Resource Q), concentrated to 0.3 mg/ml, heated at 80°C or 95°C, then 10% native-PAGE; step: tetramers to octamers
[5] = molecular target: wild type tcSOD (hyperthermostable Fe-superoxide dismutase from Tengchong hot springs) (not stated (metagenomic library of hot springs in Tengchong, China)); experiment: cross-linking; 0.5 mM DSP for 10 min after 50 min at the given temperature, without DTT; read by SDS-PAGE and native-PAGE
[6] = molecular target: wild type tcSOD (hyperthermostable Fe-superoxide dismutase from Tengchong hot springs) (not stated (metagenomic library of hot springs in Tengchong, China)); experiment: SEC; Superdex 200HR 10/30, 20 mM sodium phosphate pH 7.4, 25°C, 0.5 ml/min; protein 0.1 to 1.0 mg/ml, not cross-linked
[7] = molecular target: wild type tcSOD (hyperthermostable Fe-superoxide dismutase from Tengchong hot springs) (not stated (metagenomic library of hot springs in Tengchong, China)); experiment: native gel or EMSA; 10% native-PAGE (also 5-15% gradient), 20 mM PBS pH 7.4, 0.1-1.0 mg/ml (mutants 1 mg/ml), bands quantified by GIS software; step: tetramers to high-order oligomers; fractions almost unchanged with 0-5 M NaCl, pH 3-11 or 80°C for 60 min

Row | Substance | stoichiometry N [1] | stoichiometry N [2] | stoichiometry N [3] | stoichiometry N [4] | stoichiometry N [5] | stoichiometry N [6] | fraction of high-order oligomers (at 0.1 mg/ml) [7] [%] | fraction of high-order oligomers (at 1.0 mg/ml) [7] [%] | stoichiometry N [7]
1 | tcSOD truncation mutant M202 (residues 1-201) (domain or fragment) | 4 and 2 |  |  |  |  |  |  |  | 
2 | wild type tcSOD (hyperthermostable Fe-superoxide dismutase from Tengchong hot springs) (enzyme) |  | 4 | 4 and 2 | 8 | 2 | 4 | 1.5 | 5 | > 8
